From patent US20250333523A1 (Alector, published 2025)

T1: Avi/His-HuIL18BPa (recombinant human IL-18BP isoform A with Avi and poly-His tags) (human, biotinylated with BirA on the Avi tag in some assays)
T1 construct: also called human IL-18BP-Avi-His
T1 chain: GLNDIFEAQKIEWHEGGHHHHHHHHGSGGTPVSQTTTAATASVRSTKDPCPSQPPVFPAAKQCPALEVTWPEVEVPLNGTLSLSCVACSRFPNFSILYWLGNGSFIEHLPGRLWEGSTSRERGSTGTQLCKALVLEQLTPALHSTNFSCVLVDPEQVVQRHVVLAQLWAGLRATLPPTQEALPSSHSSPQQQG

T2: Avi/HisMsIL18BPd (recombinant mouse IL-18BP with Avi and poly-His tags) (mouse, biotinylated with BirA on the Avi tag in some assays)
T2 construct: also called murine IL-18BP; IL-18BP-Avi-His (mouse)
T2 chain: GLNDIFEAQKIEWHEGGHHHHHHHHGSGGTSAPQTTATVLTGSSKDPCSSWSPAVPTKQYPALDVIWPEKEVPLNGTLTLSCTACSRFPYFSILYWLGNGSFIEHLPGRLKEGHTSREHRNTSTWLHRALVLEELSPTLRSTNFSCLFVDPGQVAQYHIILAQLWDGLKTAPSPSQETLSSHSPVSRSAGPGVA

T3: His/Avi-CynoIL18BP (recombinant cynomolgus IL-18BP with His and Avi tags) (cynomolgus monkey)
T3 construct: also called cynomolgus IL-18BP-Avi-His
T3 chain: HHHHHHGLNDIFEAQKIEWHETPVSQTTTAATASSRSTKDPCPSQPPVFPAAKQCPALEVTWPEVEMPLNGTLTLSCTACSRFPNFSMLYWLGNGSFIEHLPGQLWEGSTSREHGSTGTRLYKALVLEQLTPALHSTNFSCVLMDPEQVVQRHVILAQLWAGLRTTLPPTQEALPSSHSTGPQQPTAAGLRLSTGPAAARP

T4: mouse IL-18BPd-human IgG Fc (R&D Systems, Cat. #122-BP-100) (mouse; human, UniProt Q9Z0M9 29-193)
T4 construct: Bought; also called mouse IL-18BPd-Fc Chimera
T4 sequence (looked up): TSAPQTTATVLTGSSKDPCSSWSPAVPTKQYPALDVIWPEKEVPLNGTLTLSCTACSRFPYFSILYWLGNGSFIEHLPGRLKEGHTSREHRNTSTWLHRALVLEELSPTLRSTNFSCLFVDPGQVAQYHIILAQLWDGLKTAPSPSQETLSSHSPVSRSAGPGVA


Legend:
[1] = target: T1, Avi/His-HuIL18BPa (recombinant human …); assay: ELISA, coated IL-18BP
[2] = target: T2, Avi/HisMsIL18BPd (recombinant mouse …); assay: ELISA, coated IL-18BP
[3] = target: T3, His/Avi-CynoIL18BP (recombinant …); assay: ELISA, coated IL-18BP
[4] = target: T1, Avi/His-HuIL18BPa (recombinant human …); assay: cell-based or functional assay
[5] = target: T2, Avi/HisMsIL18BPd (recombinant mouse …); assay: cell-based or functional assay
[6] = target: T3, His/Avi-CynoIL18BP (recombinant …); assay: cell-based or functional assay
[7] = target: T3, His/Avi-CynoIL18BP (recombinant …); assay: SPR Carterra LSA, IgG immobilized
[8] = target: T1, Avi/His-HuIL18BPa (recombinant human …); assay: blocking ELISA, competitor human IL-18
[9] = target: T4, mouse IL-18BPd-human IgG Fc (R&D …); assay: blocking ELISA, competitor mouse IL-18
[10] = target: T3, His/Avi-CynoIL18BP (recombinant …); assay: blocking ELISA, competitor rhesus IL-18
[11] = target: T1, Avi/His-HuIL18BPa (recombinant human …); assay: SPR Carterra LSA, IgG immobilized

Binder | ELISA binding ratio (fold-change over background) [1] | ELISA binding ratio (fold-change over background) [2] | ELISA binding ratio (fold-change over background) [3] | EC50 of IFNγ release, human PBMC [4] | Fold change of IFNγ at 10 µg/ml vs baseline, human PBMC [4] | EC50 of IFNγ release, mouse splenocytes [5] | Fold change of IFNγ at 10 µg/ml vs baseline, mouse splenocytes [5] | % of Max Gamma, human NK cells [6] | EC50 of IFNγ release, human NK cells [6] | Kd [7] | blocking ELISA signal normalized to isotype control (=1) [8] | blocking ELISA signal normalized to isotype control (=1) [9] | blocking ELISA signal normalized to isotype control (=1) [10] | Kd [11]
anti-IL18BP antibody BP-01 (antibody, human IgG1, V domains shown) VH: QVQLQQSGPEVVRPGVSVKISCKGSGYTFTDFAMYWVKQSHAKSLEWIGVISTDNGDTSYNQKFKGKATMTVDKSSSTAYMELDRLTSEDSAIYYCARSRGPFDYWGQGTALTVSS VL: DIVMTQSHKFKSTSVGDRVNITCKASQDVGTAVAWYQQKPGQSPKLLIYWASTRHIGVPDRFTGSGSGTDFTLTIRNVQSEDLADYFCQRYSSYPWTFGGGTKLEIK | 40.7 fold over background | 36.7 fold over background | 47.4 fold over background | 0.75 nM | 14.9 fold | 8.36 nM | 1.65 fold | 52.2% | 12.5 nM | 12.1 nM | 0.076 ratio to isotype control | 0.316 ratio to isotype control | 0.795 ratio to isotype control | –
anti-IL18BP antibody BP-09 (antibody, human IgG1, V domains shown) VH: QVQLQQSGAELVRPGASVTLSCKASGYRFTDYAMHWVKQTPVHGLQWIGIIDPETGDTAFNQKFKGKATLTADKSSSTAYMELSSLTSEDSAVYYCTRPRGAMDYWGQGTSVTVSS VL: DIVMTQSHKFMSTSGGDRVSITCKASQDVGTAVAWYQQKPGISPKLLIYWASTRHTGVPDRFTGSGSGTDFTLAISNVQSEDLADYFCQQYSSHPYTFGGGTKLEIK | 44.4 fold over background | 32.7 fold over background | 44.9 fold over background | 1.41 nM | 15.4 fold | 426 nM | 2.88 fold | 46.6% | 51.7 nM | 1.4 nM | – | – | 0.315 ratio to isotype control | 2.01 nM
anti-IL18BP antibody BP-03 (antibody, human IgG1, V domains shown) VH: EVQLQQSGPELVKPGASVKIPCKASGYTFTDYNMDWVKQSHGKSLEWIGNINTDNGGTVYNQKFKGKATLTVDQSSSTAYMELRSLTSEDTAVYYCARSDTTVVASRYYAMDYWGQGTSVTVSS VL: DIVLTQSPASLAMSLGKRATISCRASESVSIIGTNLIHWYQQKPGQPPKLLIYHASNLETGVPARFSGSGSRTDFTLTIDPVEEDDVAIYYCLQSRKIPPTFGGGTKLEIK | 41.9 fold over background | 41.6 fold over background | 36.5 fold over background | 1.14 nM | 11.3 fold | 4.49 nM | 5.93 fold | – | – | 2.34 nM | 0.151 ratio to isotype control | 0.157 ratio to isotype control | 0.996 ratio to isotype control | 4.1 nM
anti-IL18BP antibody BP-10 (antibody, human IgG1, V domains shown) VH: QVQLQQPGAERVEPGASVRLSCKTSGYTFTNYWMHWVKQRPGQGLEWIGMIHPESGSTNNNEKFKSKATLTVDKSSSTAYMQLSSLTSEDSAVYYCARWDRGYFDYWGQGTTLTVSS VL: DIVMTQSHKFMSTSVGDRVSITCKASQDVRSTVGWYQQRPGQSPKLLIYWTSTRHTGVPDRFTGSGSGTDYTLTISSVQAEDLALYYCQQHYSTPYTFGGGTTLEIK | 42.1 fold over background | 40.8 fold over background | 48.1 fold over background | 2.05 nM | 15.5 fold | 538 nM | 2.85 fold | 55.2% | 6 nM | 0.02 nM | 0.067 ratio to isotype control | 0.326 ratio to isotype control | 0.28 ratio to isotype control | 1 nM
anti-IL18BP antibody BP-13 (antibody, human IgG1, V domains shown) VH: QVQLQQSGAELVRPGASVTLSCKASGYTFTDYEMHWVKQTPVHGLEWIGPIDPETGDTAYNQKFKGQATLTADKSSSTAYMELSSLTSEDSAVYYCTRGSRGVFDYWGQGTALTVSS VL: DIVMTQSHKFMSTSVGDRVSITCKASQDVGTAVAWYQQKPGQSPKLLIYWASARHTGVPDRFTGSGSGTDFTLTISNVQSEDLADYFCQHYFNFPRTFGGGTKLEIT | 44.7 fold over background | 16.9 fold over background | 49 fold over background | 3.89 nM | 11.8 fold | 640 nM | 1.74 fold | 54.1% | 39.7 nM | 0.3 nM | 0.128 ratio to isotype control | 0.53 ratio to isotype control | 0.331 ratio to isotype control | 7.2 nM
anti-IL18BP antibody BP-12 (antibody, human IgG1, V domains shown) VH: EVQLQQSGPELVKPGASVKMSCKTSGYTFTEYTMHWVKQSHGKSLEWIGGVNPNNGGTTYNQKFRDKATLTVDKSSSTTYMEVRTLTSDDSAVYYCAPLWRVFDYWGQGTTLTVSS VL: DIVMTQSHKFMSSSVGDRVSITCKASQDVGTAVAWYQQKPGQSPKLLIYWASTRHTGVPDRFTGSGSGTDFTLTISNVQSEDLADYFCHQFSRYPLTFGAGTKLELK | 43.2 fold over background | 34.2 fold over background | 44 fold over background | 6.09 nM | 10.3 fold | 15.7 nM | 1.88 fold | 76.5% | 70 nM | 0.5 nM | 0.117 ratio to isotype control | 0.351 ratio to isotype control | 0.36 ratio to isotype control | 7.6 nM
